{"source": "paper PMC3458543", "target": "T1, His-Six1-HD (Mus musculus, UniProt Q62231 110-201)", "T1 sequence": "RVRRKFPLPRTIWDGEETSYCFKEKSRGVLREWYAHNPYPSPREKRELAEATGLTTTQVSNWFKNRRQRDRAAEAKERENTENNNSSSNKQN", "test": "EMSA"}
{"binder": "Myog_mut34 (dsDNA) DNA 1: GTTAGAGGGGGTATCAGGTTTGTGTGGCGTTGGC DNA 2: GCCAACGCCACACAAACCTGATACCCCCTCTAAC", "values": [{"measurement": "binding result", "result": "binds"}]}
